Publication PMC12362409

Legend:
TRAF2 = TRAF2 (UniProt Q12933); experiment: anti-Myc co-IP, Flag immunoblot; conditions: reference: wild type mMAVS; sites S186,S220
TRAF3 = TRAF3 (UniProt Q13114); experiment: anti-Myc co-IP, Flag immunoblot; conditions: reference: wild type mMAVS; sites S186,S220

For “mouse MAVS (mMAVS) (from UniProt Q8VCF0) S186A/S220A (2SA)”, the “binding against the reference” value (TRAF2) was “weaker” and the “binding against the reference” value (TRAF3) was “weaker”.
